According to US8512970B2, “Rapid bioluminescence detection assay” (The Secretary of State for Health, priority 2009, dated 2013):

B1: T. maritima: Adenylate kinase (AK) from Thermotoga maritima, monomer; reporter kinase (protein, UniProt Q9X1I8 1-220, looked up)
Adenylate kinase: MMAYLVFLGPPGAGKGTYAKRLQEITGIPHISTGDIFRDIVKKENDELGKKIKEIMERGELVPDELVNEVVKRRLSEKDCERGFILDGYPRTVAQAEFLDGFLKTQNKELTAAVLFEVPEEVVVQRLTARRICPKCGRIYNLISLPPKEDELCDDCKVKLVQREDDKEETVRHRYKVYLEKTQPVIDYYDKKGILKRVDGTIGIDNVIAEVLKIIGWSDK
B2: S. acidocaldarius: Adenylate kinase (AK) from Sulfolobus acidocaldarius, trimer; reporter kinase (protein, UniProt P35028 1-194, looked up)
Adenylate kinase: MKIGIVTGIPGVGKSTVLAKVKEILDNQGINNKIINYGDFMLATALKLGYAKDRDEMRKLSVEKQKKLQIDAAKGIAEEARAGGEGYLFIDTHAVIRTPSGYLPGLPSYVITEINPSVIFLLEADPKIILSRQKRDTTRNRNDYSDESVILETINFARYAATASAVLAGSTVKVIVNVEGDPSIAANEIIRSMK

Experiment: Isoelectric point of reporter kinases (Table 2)
Assay type: physicochemical

| Molecule | pI Actual (if known) |
| --- | --- |
| B1 | ~6.7 |
| B2 | > 10 |
